In patent US20050282743A1, “Molecular interactions in cells” (Arbor Vita Corporation, priority 2001, published 2005):
Values belong to the substance of their own block, whether it stands above or below them. Ends that are not written are not given here. * marks the point of attachment. Biotin = O=C1N[C@H]2[C@H](CS[C@H]2CCCCC(=O)*)N1

Columns and labels:
Assay in all cases: G' assay (10 uM PL peptide), results of TABLE 7 and TABLE 12
Format in all cases: binding
[1] = target: T1, PDZ protein (GST-PDZ fusion) (Homo sapiens, UniProt Q6P0Q8)
T1 construct: made in house; host or cells: E. coli (DH5alpha, BL21 or JM109)
Text: (§1) Each page of TABLE 7 and 12 includes seven columns. The columns in each table are numbered from left to right such that the left-most column in each table is column 1 and the right-most column in each table is column 7. Thus, the first column in each table is labeled “AVC ID”; this column simply lists an internal reference number used to refer to the carboxyl-terminal amino acids of the PL proteins listed in the second column. […] All PL peptides were biotinylated at the amino-terminus and the sequences of these PL peptides are presented in TABLE 8 (see end of specification).
(§2) This column provides the gene name for the PDZ portion of the GST-PDZ fusion that interacts with the PDZ-ligand to the left. For PDZ domain-containing proteins with multiple domains, the domain number is listed to the right of the PDZ (i.e., in column 5 labeled “PDZ Domain”), and indicates the PDZ domain number when numbered from the amino-terminus to the carboxy-terminus.
(§3) The third column labeled “Peptide Optimal Concentration” in the tables is a number reflective of the binding interaction between the PL protein and PDZ protein. […] The column labeled “Protein Optimal Concentration” refers to the protein concentration used to assay PL interaction (in ug/ml); a ‘0’ is indicative of 5 ug/ml protein concentration; any other value represents the concentration (in ug/ml) used to determine the dissociation constant for a given interaction.
(§4) Finally, the seventh column labeled “Classification” is another measure of the level of binding. In particular, it provides an absorbance value at 450 nm which indicates the amount of PL peptide bound to the PDZ protein. The following numerical values have the following meanings: ‘1’—A450 nm 0-1; ‘2’—A450 nm 1-2; ‘3’—A450 nm 2-3; ‘4’—A450 nm 3-4; ‘5’—A450 nm of 4 more than 2× repeated; ‘0’—A450 nm 0, i.e., not found to interact. Thus, higher numbers indicate stronger interactions.
(§5) For convenience, the assay conditions described in this section are referred to as the “G′ assay” and the “G″ assay,” with the specific conditions described in the preceding section on G assays being referred to as the “G^0 assay.” The “G′ assay” is identical to the “G^0 assay” except at step (2) the peptide concentration is 10 uM instead of 20 uM.

[2] = system: PDZ protein (GST-PDZ fusion)
Text: as §1, §2, §3, §4, §5

[3] = target: T2, PDZ protein (GST-PDZ fusion) (Homo sapiens, UniProt Q02410); conditions: PDZ Mint 1, PDZ Domain 1, 2
T2 construct: made in house; host or cells: E. coli (DH5alpha, BL21 or JM109)
T2 sequence (Q02410 1-837): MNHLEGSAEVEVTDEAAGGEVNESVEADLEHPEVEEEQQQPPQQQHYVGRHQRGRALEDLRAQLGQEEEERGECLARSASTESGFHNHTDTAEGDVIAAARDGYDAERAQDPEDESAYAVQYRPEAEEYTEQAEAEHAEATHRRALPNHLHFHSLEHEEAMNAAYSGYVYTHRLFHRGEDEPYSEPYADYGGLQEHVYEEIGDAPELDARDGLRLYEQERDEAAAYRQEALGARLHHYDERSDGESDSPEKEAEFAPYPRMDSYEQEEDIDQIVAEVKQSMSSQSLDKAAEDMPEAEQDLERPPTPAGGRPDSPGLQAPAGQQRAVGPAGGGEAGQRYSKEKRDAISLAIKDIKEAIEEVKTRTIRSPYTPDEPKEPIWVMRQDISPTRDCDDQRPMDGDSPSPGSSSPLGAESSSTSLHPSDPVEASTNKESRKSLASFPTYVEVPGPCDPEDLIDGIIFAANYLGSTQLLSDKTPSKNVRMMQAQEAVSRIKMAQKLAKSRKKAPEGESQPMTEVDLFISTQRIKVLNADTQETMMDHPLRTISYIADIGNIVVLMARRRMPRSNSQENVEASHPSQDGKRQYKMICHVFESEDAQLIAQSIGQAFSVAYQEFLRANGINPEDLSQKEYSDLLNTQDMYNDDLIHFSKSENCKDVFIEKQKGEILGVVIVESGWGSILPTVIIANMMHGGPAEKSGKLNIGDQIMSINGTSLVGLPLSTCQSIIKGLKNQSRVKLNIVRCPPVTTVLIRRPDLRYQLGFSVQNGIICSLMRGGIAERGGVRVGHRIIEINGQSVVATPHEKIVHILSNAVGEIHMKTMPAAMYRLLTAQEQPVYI
Text: as §1, §2, §3, §4, §5

[4] = target: T3, PDZ protein (GST-PDZ fusion) (Homo sapiens, UniProt Q12959); conditions: PDZ DLG1, PDZ Domain 1, 2
T3 construct: made in house; host or cells: E. coli (DH5alpha, BL21 or JM109)
Text: as §1, §2, §3, §4, §5

[5] = target: T4, PDZ protein (GST-PDZ fusion) (Homo sapiens, UniProt Q5TCQ9); conditions: PDZ KIAA1634, PDZ Domain 1
T4 construct: made in house; host or cells: E. coli (DH5alpha, BL21 or JM109)
T4 sequence (Q5TCQ9 1-1481): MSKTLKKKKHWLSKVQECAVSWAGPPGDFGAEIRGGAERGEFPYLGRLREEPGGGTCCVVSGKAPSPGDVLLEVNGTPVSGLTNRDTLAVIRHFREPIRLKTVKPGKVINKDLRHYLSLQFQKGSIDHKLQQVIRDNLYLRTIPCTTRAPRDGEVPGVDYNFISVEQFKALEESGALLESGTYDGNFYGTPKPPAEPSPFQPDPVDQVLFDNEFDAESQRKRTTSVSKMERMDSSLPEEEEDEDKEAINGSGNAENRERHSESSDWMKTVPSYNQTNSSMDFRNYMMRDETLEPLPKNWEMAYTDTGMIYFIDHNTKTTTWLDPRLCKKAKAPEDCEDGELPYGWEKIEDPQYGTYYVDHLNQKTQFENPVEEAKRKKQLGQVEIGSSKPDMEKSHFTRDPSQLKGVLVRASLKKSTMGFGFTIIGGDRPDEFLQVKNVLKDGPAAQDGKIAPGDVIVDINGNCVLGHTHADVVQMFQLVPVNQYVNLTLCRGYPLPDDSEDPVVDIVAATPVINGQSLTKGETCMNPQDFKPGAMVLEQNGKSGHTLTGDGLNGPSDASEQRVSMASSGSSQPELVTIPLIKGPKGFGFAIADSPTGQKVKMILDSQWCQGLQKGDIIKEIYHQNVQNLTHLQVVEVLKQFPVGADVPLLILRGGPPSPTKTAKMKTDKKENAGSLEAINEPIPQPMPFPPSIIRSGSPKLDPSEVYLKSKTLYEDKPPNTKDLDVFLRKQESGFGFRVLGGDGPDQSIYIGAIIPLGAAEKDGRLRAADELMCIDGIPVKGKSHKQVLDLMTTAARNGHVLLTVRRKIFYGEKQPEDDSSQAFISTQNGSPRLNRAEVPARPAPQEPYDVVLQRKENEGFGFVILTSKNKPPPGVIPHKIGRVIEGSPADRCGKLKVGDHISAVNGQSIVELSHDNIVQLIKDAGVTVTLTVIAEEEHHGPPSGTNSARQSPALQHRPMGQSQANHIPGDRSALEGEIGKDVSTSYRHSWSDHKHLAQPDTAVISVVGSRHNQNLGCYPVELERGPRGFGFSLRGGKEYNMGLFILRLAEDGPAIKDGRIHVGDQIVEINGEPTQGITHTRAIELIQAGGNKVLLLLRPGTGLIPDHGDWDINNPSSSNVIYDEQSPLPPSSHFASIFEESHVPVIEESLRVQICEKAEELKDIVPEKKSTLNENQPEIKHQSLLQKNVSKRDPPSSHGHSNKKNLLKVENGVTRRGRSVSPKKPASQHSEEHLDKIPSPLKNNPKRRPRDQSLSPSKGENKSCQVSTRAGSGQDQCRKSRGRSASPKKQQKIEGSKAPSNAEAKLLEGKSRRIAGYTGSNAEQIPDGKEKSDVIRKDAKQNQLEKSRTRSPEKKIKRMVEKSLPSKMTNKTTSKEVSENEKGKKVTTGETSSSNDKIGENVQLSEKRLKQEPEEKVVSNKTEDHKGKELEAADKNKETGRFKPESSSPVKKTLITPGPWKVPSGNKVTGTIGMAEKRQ
Text: as §1, §2, §3, §4, §5

[6] = target: T5, PDZ protein (GST-PDZ fusion) (Homo sapiens, UniProt Q12923); conditions: PDZ PTPL-1, PDZ Domain 4
T5 construct: made in house; host or cells: E. coli (DH5alpha, BL21 or JM109)
Text: as §1, §2, §3, §4, §5

[7] = target: T6, PDZ protein (GST-PDZ fusion) (Homo sapiens, UniProt O75970)
T6 construct: made in house; host or cells: E. coli (DH5alpha, BL21 or JM109)
Text: as §1, §2, §3, §4, §5

[8] = PDZ KIAA807, PDZ Domain not given

T1 sequence (Q6P0Q8 whole entry, the tested form may be a part): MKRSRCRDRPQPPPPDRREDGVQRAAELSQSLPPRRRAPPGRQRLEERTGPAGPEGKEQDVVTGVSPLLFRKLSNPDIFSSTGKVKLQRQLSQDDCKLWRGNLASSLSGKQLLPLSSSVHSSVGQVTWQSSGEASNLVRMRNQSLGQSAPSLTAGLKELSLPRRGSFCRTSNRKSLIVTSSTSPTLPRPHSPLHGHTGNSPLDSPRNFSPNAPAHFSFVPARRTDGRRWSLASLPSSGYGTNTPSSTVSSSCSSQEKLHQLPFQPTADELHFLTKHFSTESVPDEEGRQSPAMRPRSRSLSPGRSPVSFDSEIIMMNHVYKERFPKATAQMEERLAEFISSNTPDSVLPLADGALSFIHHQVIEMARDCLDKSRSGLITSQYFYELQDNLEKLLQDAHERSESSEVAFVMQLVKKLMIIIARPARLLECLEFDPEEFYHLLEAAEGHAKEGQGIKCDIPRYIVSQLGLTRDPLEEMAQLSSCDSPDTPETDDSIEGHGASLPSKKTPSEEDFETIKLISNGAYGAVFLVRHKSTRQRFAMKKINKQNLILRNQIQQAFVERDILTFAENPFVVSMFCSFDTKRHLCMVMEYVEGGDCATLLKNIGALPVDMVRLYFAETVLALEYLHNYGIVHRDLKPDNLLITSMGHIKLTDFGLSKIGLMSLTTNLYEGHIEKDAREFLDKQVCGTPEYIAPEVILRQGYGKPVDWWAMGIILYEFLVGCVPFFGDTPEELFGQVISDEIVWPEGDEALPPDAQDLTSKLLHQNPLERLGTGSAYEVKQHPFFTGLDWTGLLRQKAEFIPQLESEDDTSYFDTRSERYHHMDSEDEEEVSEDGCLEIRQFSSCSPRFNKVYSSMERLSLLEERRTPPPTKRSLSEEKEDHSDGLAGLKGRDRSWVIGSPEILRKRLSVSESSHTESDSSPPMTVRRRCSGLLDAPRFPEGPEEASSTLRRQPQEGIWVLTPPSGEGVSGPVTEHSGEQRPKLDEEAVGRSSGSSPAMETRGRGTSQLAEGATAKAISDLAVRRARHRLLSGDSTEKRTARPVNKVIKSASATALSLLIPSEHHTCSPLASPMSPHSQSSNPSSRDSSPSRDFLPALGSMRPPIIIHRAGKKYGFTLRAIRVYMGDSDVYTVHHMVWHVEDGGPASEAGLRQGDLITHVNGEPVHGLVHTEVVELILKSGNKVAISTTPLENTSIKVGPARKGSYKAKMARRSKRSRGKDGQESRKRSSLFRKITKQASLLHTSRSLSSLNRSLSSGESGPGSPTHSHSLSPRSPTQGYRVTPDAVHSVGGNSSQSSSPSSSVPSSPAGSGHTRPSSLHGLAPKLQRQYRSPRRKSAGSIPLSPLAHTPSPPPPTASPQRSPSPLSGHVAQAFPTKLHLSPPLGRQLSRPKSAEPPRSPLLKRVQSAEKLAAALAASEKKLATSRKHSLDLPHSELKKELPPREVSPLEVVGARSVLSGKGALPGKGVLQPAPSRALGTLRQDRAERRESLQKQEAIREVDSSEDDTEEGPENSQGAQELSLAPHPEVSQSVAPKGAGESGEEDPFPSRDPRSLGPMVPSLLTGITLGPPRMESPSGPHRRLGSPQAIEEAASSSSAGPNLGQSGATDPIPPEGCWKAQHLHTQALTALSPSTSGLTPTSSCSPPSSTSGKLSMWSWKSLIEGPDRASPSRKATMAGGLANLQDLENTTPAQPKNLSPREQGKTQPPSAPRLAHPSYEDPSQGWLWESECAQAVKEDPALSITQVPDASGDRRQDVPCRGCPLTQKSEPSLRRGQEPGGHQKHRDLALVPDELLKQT
T6 sequence (O75970 whole entry, the tested form may be a part): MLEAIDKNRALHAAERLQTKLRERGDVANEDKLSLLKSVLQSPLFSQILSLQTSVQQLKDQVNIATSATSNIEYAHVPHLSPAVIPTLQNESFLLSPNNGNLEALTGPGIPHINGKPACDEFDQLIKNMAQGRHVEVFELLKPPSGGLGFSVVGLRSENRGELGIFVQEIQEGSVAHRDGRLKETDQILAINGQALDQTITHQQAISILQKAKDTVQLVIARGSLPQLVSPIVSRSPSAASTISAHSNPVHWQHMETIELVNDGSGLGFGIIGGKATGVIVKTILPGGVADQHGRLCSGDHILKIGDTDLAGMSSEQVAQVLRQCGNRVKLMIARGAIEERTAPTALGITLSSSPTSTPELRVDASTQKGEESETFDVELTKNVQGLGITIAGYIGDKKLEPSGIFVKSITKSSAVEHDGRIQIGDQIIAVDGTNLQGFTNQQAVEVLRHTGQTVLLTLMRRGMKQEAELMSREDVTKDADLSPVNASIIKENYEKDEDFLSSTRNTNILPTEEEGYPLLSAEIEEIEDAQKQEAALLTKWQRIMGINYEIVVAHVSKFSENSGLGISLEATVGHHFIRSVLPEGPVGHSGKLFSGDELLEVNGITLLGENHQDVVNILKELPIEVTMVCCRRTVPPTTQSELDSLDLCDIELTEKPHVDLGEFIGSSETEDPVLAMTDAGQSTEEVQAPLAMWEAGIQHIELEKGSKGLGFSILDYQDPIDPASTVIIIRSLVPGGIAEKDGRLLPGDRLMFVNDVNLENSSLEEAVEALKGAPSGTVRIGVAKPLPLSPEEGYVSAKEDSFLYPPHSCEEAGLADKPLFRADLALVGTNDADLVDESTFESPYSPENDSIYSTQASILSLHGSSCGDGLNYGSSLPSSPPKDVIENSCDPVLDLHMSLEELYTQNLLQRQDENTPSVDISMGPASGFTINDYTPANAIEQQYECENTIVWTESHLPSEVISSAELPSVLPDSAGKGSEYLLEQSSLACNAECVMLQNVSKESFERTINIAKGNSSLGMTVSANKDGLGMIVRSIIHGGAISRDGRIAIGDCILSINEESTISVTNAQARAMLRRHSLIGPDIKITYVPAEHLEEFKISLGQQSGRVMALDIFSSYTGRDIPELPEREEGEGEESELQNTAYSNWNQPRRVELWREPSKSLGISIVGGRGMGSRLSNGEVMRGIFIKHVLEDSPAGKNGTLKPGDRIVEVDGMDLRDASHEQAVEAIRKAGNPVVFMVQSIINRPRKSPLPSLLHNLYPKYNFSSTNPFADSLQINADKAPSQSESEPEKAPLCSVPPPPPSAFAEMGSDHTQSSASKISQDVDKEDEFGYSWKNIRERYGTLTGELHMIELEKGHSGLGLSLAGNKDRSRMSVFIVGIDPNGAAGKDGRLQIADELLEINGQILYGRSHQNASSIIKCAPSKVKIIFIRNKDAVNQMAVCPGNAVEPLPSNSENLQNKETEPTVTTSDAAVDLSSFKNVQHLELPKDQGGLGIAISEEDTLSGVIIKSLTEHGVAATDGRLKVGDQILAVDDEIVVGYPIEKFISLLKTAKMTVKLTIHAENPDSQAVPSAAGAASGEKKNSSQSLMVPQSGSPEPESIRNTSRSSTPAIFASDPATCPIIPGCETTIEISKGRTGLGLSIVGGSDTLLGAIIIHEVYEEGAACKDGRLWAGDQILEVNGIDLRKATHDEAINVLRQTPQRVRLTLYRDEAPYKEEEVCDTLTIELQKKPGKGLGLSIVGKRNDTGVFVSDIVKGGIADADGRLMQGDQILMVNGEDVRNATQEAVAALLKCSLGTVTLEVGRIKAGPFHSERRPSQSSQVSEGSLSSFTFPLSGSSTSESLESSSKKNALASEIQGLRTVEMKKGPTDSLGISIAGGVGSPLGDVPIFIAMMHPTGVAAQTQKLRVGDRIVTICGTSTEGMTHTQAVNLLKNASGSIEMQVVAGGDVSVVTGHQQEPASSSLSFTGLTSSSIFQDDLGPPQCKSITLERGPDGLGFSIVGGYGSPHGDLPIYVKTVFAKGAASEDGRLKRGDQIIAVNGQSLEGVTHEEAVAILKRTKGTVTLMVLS
T3 sequence (Q12959 whole entry, the tested form may be a part): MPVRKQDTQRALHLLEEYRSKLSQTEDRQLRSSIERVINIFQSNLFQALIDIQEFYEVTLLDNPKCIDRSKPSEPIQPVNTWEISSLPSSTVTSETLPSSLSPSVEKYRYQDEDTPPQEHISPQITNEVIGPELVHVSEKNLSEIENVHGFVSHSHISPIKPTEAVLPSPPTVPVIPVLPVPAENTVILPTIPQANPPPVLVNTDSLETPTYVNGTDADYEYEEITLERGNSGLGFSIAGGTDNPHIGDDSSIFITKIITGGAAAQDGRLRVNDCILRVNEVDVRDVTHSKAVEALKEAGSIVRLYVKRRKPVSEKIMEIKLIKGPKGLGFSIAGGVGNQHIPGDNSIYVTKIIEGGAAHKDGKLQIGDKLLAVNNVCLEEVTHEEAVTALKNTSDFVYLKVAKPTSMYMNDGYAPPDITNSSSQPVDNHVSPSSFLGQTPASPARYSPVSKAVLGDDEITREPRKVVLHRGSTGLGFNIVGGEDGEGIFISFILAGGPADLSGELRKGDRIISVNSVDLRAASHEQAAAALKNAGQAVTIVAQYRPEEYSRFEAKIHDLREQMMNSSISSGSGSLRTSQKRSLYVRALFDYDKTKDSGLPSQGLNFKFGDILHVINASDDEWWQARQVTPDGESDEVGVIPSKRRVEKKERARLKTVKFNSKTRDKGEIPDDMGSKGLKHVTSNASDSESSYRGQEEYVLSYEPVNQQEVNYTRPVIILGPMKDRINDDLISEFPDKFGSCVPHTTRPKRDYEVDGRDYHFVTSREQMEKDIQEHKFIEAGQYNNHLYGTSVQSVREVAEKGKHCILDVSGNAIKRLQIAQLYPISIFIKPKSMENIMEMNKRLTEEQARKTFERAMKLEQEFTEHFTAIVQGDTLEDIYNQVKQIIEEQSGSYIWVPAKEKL

Substance: KPQIAALKEETEEEVQDTRL (Biotin-KPQIAALKEETEEEVQDTRL)
Classification ([1]; PDZ KIAA0807(S), PDZ Domain 1): 2 (A450 nm 1-2) | Classification [1, 8]: 1 (A450 nm 0-1) | Classification ([2]; PDZ SHANK, PDZ Domain 1): 1 (A450 nm 0-1)

Substance: DGGARTEDEVQSYPSKHDYV (Biotin-DGGARTEDEVQSYPSKHDYV) [claudin 18]
Classification [3]: 1 (A450 nm 0-1)

Substance: GGEDFKTTNPSKQFDKNAYV (Biotin-GGEDFKTTNPSKQFDKNAYV) [claudin 10]
Classification [4]: 1 (A450 nm 0-1) | Classification [5]: 1 (A450 nm 0-1)

Substance: PRLKRMQQFEDLEDEIPQFV (Biotin-PRLKRMQQFEDLEDEIPQFV) [RhoGAP 1 (PTPL1-associated)]
Classification [6]: 2 (A450 nm 1-2)

Substance: C5AR_HUMAN (Biotin-ESKSFTRSTVDTMAQKTQAV)
Classification [6]: 1 (A450 nm 0-1)

Further lines, with some results ahead:

Classification [3]: 4 (A450 nm 3-4)
Substance: KAGYRAPRSYPKSNSSKEYV (Biotin-KAGYRAPRSYPKSNSSKEYV) [claudin 7]

Classification [5]: 1 (A450 nm 0-1) | Classification [3]: 2 (A450 nm 1-2) | Classification ([1]; PDZ KIAA807): 1 (A450 nm 0-1)
Substance: PGQPPKVKSEFNSYSLTGYV (Biotin-PGQPPKVKSEFNSYSLTGYV) [claudin 2]
Classification ([2]; PDZ BAI-1, PDZ Domain 3): 1 (A450 nm 0-1)

Classification ([1]; PDZ KIAA0807(S), PDZ Domain 1): 1 (A450 nm 0-1) | Classification [1, 8]: 1 (A450 nm 0-1)
Substance: SPQPDSTDNDDYDDISAA (Biotin-SPQPDSTDNDDYDDISAA) [CD6]

Classification ([7]; PDZ MUPP-1, PDZ Domain 3): 1 (A450 nm 0-1) | Classification ([7]; PDZ MUPP-1, PDZ Domain 7): 1 (A450 nm 0-1) | Classification ([7]; PDZ MUPP-1, PDZ Domain 9): 1 (A450 nm 0-1) | Classification [6]: 2 (A450 nm 1-2) | Classification ([1]; PDZ KIAA0807(S), PDZ Domain 1): 1 (A450 nm 0-1) | Classification ([1]; PDZ KIAA807 (domain not given)): 1 (A450 nm 0-1)
Substance: PVYIVQEMPPQSPANIYYKV (Biotin-PVYIVQEMPPQSPANIYYKV) [ephrin B1]
